Laboratory results: patent US20220056091A1 (BRIGHT PEAK THERAPEUTICS, published 2022)
Substitutions are numbered along the chain they refer to. Names may count otherwise.

B1: Modified IL-18 polypeptide of SEQ ID NO: 2 (E06K, K53A, S55A) (ligand)
chain: YFGKLKSKLSVIRNLNDQVLFIDQGNRPLFEDMTDSDCRDNAPRTIFIISMYADAQPRGMAVTISVKCEKISTLSCENKIISFKEMNPPDNIKDTKSDIIFFQRSVPGHDNKMQFESSSYEGYFLACEKERDLFKLILKKEDELGDRSIMFTVQNED
B2: Modified IL-18 polypeptide of SEQ ID NO: 22 (E06K, K53A, C38S, C68S, C76S, C127S, K70C) (ligand)
chain: B1 chain with C38S, A55S, C68S, K70C, C76S, C127S
B3: Modified IL-18 polypeptide of SEQ ID NO: 10 (E06K, K53A, S55A, T63A) (ligand)
chain: B1 chain with T63A
B4: Modified IL-18 polypeptide of SEQ ID NO: 71 (E6K, C38S, K53A) (ligand)
chain: B1 chain with C38S, A55S
B5: Modified IL-18 polypeptide of SEQ ID NO: 14 (E06K, K53A, S55A, M51G) (ligand)
chain: B1 chain with M51G
B6: Modified IL-18 polypeptide of SEQ ID NO: 12 (E06K, K53A, S55A, F02A) (ligand)
chain: B1 chain with F2A
B7: Modified IL-18 polypeptide of SEQ ID NO: 16 (C38S, C68S, C76S, C127S, K70C) (ligand)
chain: B1 chain with K6E, C38S, A53K, A55S, C68S, K70C, C76S, C127S
B8: Modified IL-18 polypeptide of SEQ ID NO: 17 (E06K, K53A, S55A, C38S, C68S, C76S, C127S, K70C) (ligand)
chain: B1 chain with C38S, C68S, K70C, C76S, C127S
B9: Modified IL-18 polypeptide of SEQ ID NO: 13 (E06K, K53A, S55A, D54A) (ligand)
chain: B1 chain with D54A
B10: Modified IL-18 polypeptide of SEQ ID NO: 70 (E6K, K53A, C38S, C76S, C127S) (ligand)
chain: B1 chain with C38S, A55S, C76S, C127S
B11: Modified IL-18 polypeptide of SEQ ID NO: 18 (E06K, K53A, T63A) (ligand)
chain: B1 chain with A55S, T63A
B12: Modified IL-18 polypeptide of SEQ ID NO: 15 (C38S, C68S, C76S, C127S) (ligand)
chain: B1 chain with K6E, C38S, A53K, A55S, C68S, C76S, C127S
B13: Modified IL-18 polypeptide of SEQ ID NO: 3 (Y01G, F02A, E06K, M51G, K53A, D54A, S55A, T63A) (ligand)
chain: B1 chain with Y1G, F2A, M51G, D54A, T63A
B14: Modified IL-18 polypeptide of SEQ ID NO: 71 with a 30 kDa PEG attached at residue C68 (E6K, C38S, K53A, C68-30kDPEG) (ligand)
chain: B1 chain with C38S, A55S
modifications: 30 kDa PEG on Cys 68 (30 kDa DBCO-polyethylene glycol clicked to a bromoacetamido-PEG5-azide linker on the cysteine)
notes: also called 71 + PEG
B15: Modified IL-18 polypeptide of SEQ ID NO: 23 (K53A, T63A, C38S, C68S, C76S, C127S, K70C) (ligand)
chain: B1 chain with K6E, C38S, A55S, T63A, C68S, K70C, C76S, C127S

Tests used:
Fc fused human IL-18Rα = target: T1, Fc fused human IL-18Rα (human, UniProt Q13478 19-329, limits assumed); test: SPR, Fc-IL-18Rα captured, 1:1 model
T1 construct: also called IL-18Rα monomer; IL-18 receptor alpha; not shown: Fc part
T1 sequence (looked up): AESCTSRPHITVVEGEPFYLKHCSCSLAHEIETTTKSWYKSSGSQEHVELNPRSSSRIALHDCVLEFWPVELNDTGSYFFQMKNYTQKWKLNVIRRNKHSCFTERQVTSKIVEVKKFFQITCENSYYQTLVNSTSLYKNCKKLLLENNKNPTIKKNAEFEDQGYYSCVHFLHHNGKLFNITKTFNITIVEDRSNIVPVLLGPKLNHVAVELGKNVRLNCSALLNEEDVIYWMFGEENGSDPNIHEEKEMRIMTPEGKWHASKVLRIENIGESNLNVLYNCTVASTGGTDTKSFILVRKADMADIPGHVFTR
Procedure: (§1) The interaction of the wild type and of modified IL-18 polypeptides with human IL-18 receptor subunits were measured with Surface Plasmon Resonance (SPR) technology. Anti-human IgG antibodies were bound by amine coupling onto a CM5 chip to capture 6 μg/mL of Fc fused human IL-18Rα, 6 μg/mL of Fc fused human IL-18Rβ, or 2 μg/mL of Fc fused human IL-18BP isoform a (IL-18BPa) for 30 min before capture. In other settings, 6 μg/mL of alpha and beta IL-18 receptors were mixed and pre-incubated for 30 min before capture of the alpha/beta heterodimer IL-18 receptor.
(§2) The kinetic binding of the IL-18 analytes were measured with a Biacore 8K instrument in two-fold serial dilutions starting at 1 μM down to 0.98 nM. Regeneration of the surface back to amine coupled anti IgG antibody was done after every concentration of analyte. To measure the protein association to the receptors, the samples were injected with a flow rate of 50 μL/min for 60 s, followed by 300 s buffer only to detect the dissociation. The used running buffer was 1×PBS with 0.05% Tween20. The relative response units (RU, Y-axis) are plotted against time (s, X-axis) and analyzed in a kinetic 1:1 binding model for the monomer receptor binding and for the binding to the IL-18BP. A kinetic heterogenous ligand fit model was applied for the alpha/beta heterodimer binding.
Modified IL-18 polypeptides having sequence modifications E06K, K53A, S55A, and T63A maintained binding affinity to IL-18Rα.

[1] = target: IL-18R on HEK-Blue IL18R reporter cells (InvivoGen, #hkb-hmil18); test: cell-based or functional assay
[2] = target: anti-IL18 monoclonal antibody (MBL, cat #D043-3, Clone 25-2G); test: sandwich ELISA, capture clone 25-2G, detection biotinylated clone 159-12B; without IL-18BP; the signal depends on both antibodies
Procedure: (§3) Immune-related PD effects were determined by analyzing cytokine levels in plasma. The following plasma cytokines were measured: IFNγ, CXCL9, CXCL10, GM-CSF, IL-1a, FasL, and IL-18BP. The activation status of leukocytes was determined by monitoring surface markers: ICOS, PD-1, CD25, CD69, and Fas. Bioanalysis was conducted by detecting the total amount of IL-18 variants (free and IL-18BP-complexed, see FIG. 7). Corning high-binding half-area plates (Fisher Scientific, Reinach, Switzerland) were coated overnight at 4° C. with 25 μl of anti-IL18 monoclonal antibody (MBL, cat #D043-3, Clone 25-2G) at 2 μg/ml in PBS. Plates were then washed four times with 100 μl of PBS-0.02% Tween20. Plates surfaces were blocked with 25 μl of PBS-0.02% Tween20-1% BSA at 37° C. during 1 h. Plates were then washed four times with 100 μl of PBS-0.02% Tween20. Twenty-five microliters of IL-18 variants (or of mouse plasma) were added in […] serial dilutions starting at 50 nM down to 0.02 nM into PBS-0.02% Tween20-0.1% BSA and incubated at 37° C. during 2h. […] Plates were incubated during 2h at 37° C. and were then washed four times with 100 μl of PBS-0.02% Tween20. […] ELISA signal was then measured at 450 nm on an EnSpire plate reader from Perkin Elmer (Schwerzenbach, Switzerland)

[3] = target: anti-IL18 monoclonal antibody (MBL, cat #D043-3, Clone 25-2G); test: sandwich ELISA, capture clone 25-2G, detection biotinylated clone 159-12B; in the presence of IL-18BP (form and concentration not given); the signal depends on both antibodies
Procedure: as §3

[4] = target: T2, IL-18Rα/β heterodimer (Fc fused human IL-18Rα mixed and pre-incubated with Fc fused human IL-18Rβ) (human, UniProt Q13478 19-329; O95256 20-356, limits assumed); test: SPR, Fc-IL-18Rα/Fc-IL-18Rβ mix captured, heterogeneous ligand model
T2 construct: 6 µg/mL of each receptor mixed and pre-incubated 30 min before capture on anti-human IgG; also called alpha/beta heterodimer IL-18 receptor; not shown: Fc part
T2 sequence (looked up) 1: T1 sequence (looked up)
T2 sequence (looked up) 2: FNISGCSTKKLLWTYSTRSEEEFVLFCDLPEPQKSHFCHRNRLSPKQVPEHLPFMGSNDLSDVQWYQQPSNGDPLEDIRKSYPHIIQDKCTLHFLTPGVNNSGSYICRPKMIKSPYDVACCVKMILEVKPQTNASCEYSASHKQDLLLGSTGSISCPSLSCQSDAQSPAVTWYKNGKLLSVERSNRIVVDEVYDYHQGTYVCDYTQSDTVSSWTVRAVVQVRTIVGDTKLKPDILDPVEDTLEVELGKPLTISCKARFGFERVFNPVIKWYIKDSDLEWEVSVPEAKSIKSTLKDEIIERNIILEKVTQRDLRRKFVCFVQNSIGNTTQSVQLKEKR
Procedure: as §1, §2
Modified IL-18 polypeptides bearing sequence modifications E06K, K53A, S55A, and T63A maintained binding affinity to IL-18Rα/β heterodimer.

[5] = target: T3, Fc fused human IL-18BP isoform a (IL-18BPa) (human, UniProt O95998 31-194); test: SPR, Fc-IL-18BPa captured, 1:1 model
T3 construct: also called IL-18BP monomer; not shown: Fc part
T3 sequence (looked up): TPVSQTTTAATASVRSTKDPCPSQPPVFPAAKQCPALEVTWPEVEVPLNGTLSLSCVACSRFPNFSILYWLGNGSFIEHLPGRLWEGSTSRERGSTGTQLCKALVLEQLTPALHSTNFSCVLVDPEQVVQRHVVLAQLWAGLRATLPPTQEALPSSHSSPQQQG
Procedure: as §1, §2
Modified IL-18 polypeptides bearing sequence modifications K53A, S55A, E06K, C38S, C68S, C76S, C127S, and/or K70C maintained binding affinity to IL-18BP.

| Binder | Kd (Fc fused human IL-18Rα) | koff (Fc fused human IL-18Rα) | kon (Fc fused human IL-18Rα) | EC50 (pM), HEK-Blue IL18R reporter assay [1] | Potency loss Mutant/NWT, HEK-Blue IL18R reporter assay [1] | EC50 (read off the curve) [2] | EC50 (read off the curve) [3] | Kd [4] | koff [4] | kon [4] | Kd [5] | koff [5] | kon [5] |
| --- | --- | --- | --- | --- | --- | --- | --- | --- | --- | --- | --- | --- | --- |
| B1 | 2000 nM | 0.0627 s⁻¹ | 31800 M⁻¹ s⁻¹ | 272 pM | 81.8 fold | ~0.2 nM | ~0.2 nM | 1930 nM | 0.0734 s⁻¹ | 39200 M⁻¹ s⁻¹ |  |  |  |
| B2 | 2210 nM | 0.0199 s⁻¹ | 8970 M⁻¹ s⁻¹ | 9.12 pM | 2.74 fold |  |  | 48.2 nM | 0.000761 s⁻¹ | 15800 M⁻¹ s⁻¹ | 23.2 nM | 0.00235 s⁻¹ | 101000 M⁻¹ s⁻¹ |
| B3 | 147 nM | 0.0496 s⁻¹ | 337000 M⁻¹ s⁻¹ | 0.79 pM | 0.24 fold |  |  | 132 nM | 0.054 s⁻¹ | 409000 M⁻¹ s⁻¹ | 49 nM | 0.0181 s⁻¹ | 370000 M⁻¹ s⁻¹ |
| B4 | 72.4 nM | 0.0151 s⁻¹ | 208000 M⁻¹ s⁻¹ | 0.86 pM | 0.26 fold |  |  | 2.92 nM | 0.0008 s⁻¹ | 279000 M⁻¹ s⁻¹ | 2.72 nM | 0.0031 s⁻¹ | 1.14e+06 M⁻¹ s⁻¹ |
| B5 | > 1000 nM |  |  |  |  |  |  |  |  |  | > 1000 nM |  |  |
| B6 | > 1000 nM |  |  |  |  |  |  | > 1000 nM |  |  | > 1000 nM |  |  |
| B7 | 304 nM | 0.0158 s⁻¹ | 51900 M⁻¹ s⁻¹ |  |  |  |  | 200 nM | 0.0317 s⁻¹ | 159000 M⁻¹ s⁻¹ | 0.374 nM | 0.000265 s⁻¹ | 708000 M⁻¹ s⁻¹ |
| B8 | > 1000 nM |  |  |  |  |  |  | > 1000 nM |  |  |  |  |  |
| B9 | > 1000 nM |  |  |  |  |  |  | > 1000 nM |  |  | > 1000 nM |  |  |
| B10 | 379 nM | 0.0369 s⁻¹ | 92600 M⁻¹ s⁻¹ | 3.73 pM | 1.11 fold |  |  | 13.2 nM | 0.0006 s⁻¹ | 43600 M⁻¹ s⁻¹ | 29.1 nM | 0.0037 s⁻¹ | 128000 M⁻¹ s⁻¹ |
| B11 | 38 nM | 0.00573 s⁻¹ | 151000 M⁻¹ s⁻¹ | 1.77 pM | 0.53 fold |  |  | 7.01 nM | 0.000955 s⁻¹ | 136000 M⁻¹ s⁻¹ | 10.4 nM | 0.00291 s⁻¹ | 279000 M⁻¹ s⁻¹ |
| B12 | 231 nM | 0.0179 s⁻¹ | 77500 M⁻¹ s⁻¹ |  |  |  |  | 315 nM | 0.022 s⁻¹ | 69800 M⁻¹ s⁻¹ | 0.199 nM | 0.000253 s⁻¹ | 1.27e+06 M⁻¹ s⁻¹ |
| B13 | > 1000 nM |  |  |  |  |  |  | > 1000 nM |  |  |  |  |  |
| B14 | 682 nM | 0.0217 s⁻¹ | 31800 M⁻¹ s⁻¹ | 1.85 pM | 0.56 fold |  |  | 23.9 nM | 0.0008 s⁻¹ | 32200 M⁻¹ s⁻¹ | 24.5 nM | 0.0039 s⁻¹ | 158000 M⁻¹ s⁻¹ |
| B15 | > 1000 nM |  |  |  |  |  |  | > 1000 nM |  |  | 52.8 nM | 0.00118 s⁻¹ | 22400 M⁻¹ s⁻¹ |
